# From the RNAGym collection of RNA variant scans (doi:10.1073/pnas.2313332121)
# Fewer inactive variants are shown than the library holds.
# B1: TPR 5TU (parent)
# chain: GGAUCUUCUCGAUCUAACAAAAAAGACAAAUCUGCCACAAAGCUUGAGAGCAUCUUCGGAUGCAGAGGCGGCAGCCUUCGGUGGCGCGAUAGCGCCAACGUUCUCAACUAUGACACGCAAAACGCGUGCUCCGUUGAAUGGAGUUUAUCAUG
# Variants of: B1
# Assay: polymerase ribozyme fitness, log enrichment relative to wild type (log ratio); higher = more active; in vitro selection for triplet polymerase activity
# Method in brief: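 In triplicate, a single round of in vitro selection was run on each mutant library, PCR-built and transcribed, covering one subunit of a heterodimeric triplet polymerase ribozyme. Frozen incubation at −7 °C followed annealing with a biotinylated primer, partner subunit and triplets, and extended constructs were then gel-excised, streptavidin-captured and taken through RT-PCR. Fitness is the logarithm of genotype enrichment over wild-type enrichment, from inverse-variance-weighted replicate averages of Illumina-sequenced inputs and outputs. […] only genotypes with ≥10 input reads and ≥1 read per output were kept.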
row,Variant,polymerase ribozyme fitness (log ratio)
1,GGAUCUUCUCGAUCUAACAAAAAAGUCAAAUCUGCCACAAAGCUUGAGAGCAUCUUCGGAUGCAGAGGCGGCAGCCUUCGGUGGCGCGAUAGUGCCAACGUUCUCAACUAUGACACGCAAAACGCGUGCUCCGUUGAAUGGAGUUUAUCAUG,-2.67
2,GGAUCUUCUCGAUCUAACAAAAAAGACAAAUCUGCCACAAAGCUUGAGACCAUCUUCGGAUGCAGAGACGGCAGCCUUCGGUGGCGCGAUAGCGCCAACGUUCUCAACUAUGACACGCAAAACGCGUGCUCCGUUGAAUGGUGUUUAUCAUG,≤ -4.2
3,GGAUCUUCUCGAUCUAACAAAAAAGACAAAUCUGCCAUAAAGCUUGAGAGCAUCUUCGGAUGCAGAGGCGGCAGCCUCCGGUGGCGCGAUAGCGUCAACGUUCUCAACUAUGACACGCAAAACGCGUGCUCCGUUGAAUGGAGUUUAUCAUG,-0.556
4,GGAUCUUCUCGAUCUAACAAAAAAGACAAAACUGCCACAAAGCUUGAGAGCAUCAUCGGAUGCAGAGGCGGCAGCCUUCGGUAGCGCGAUAGCGCCAACGUUCUCAACUAUGACACACAAAACGCGUGCUCCGUUGAAUGGAGUUUAUCAUG,-0.253
5,GGAUCUUCUCGAUCUAUCAAAAAAGACAAAUCUGCCACAAAGCUUGAGAGCAUCUUCGGAUGCAGAGGCGGCAGCCUUUGGUGGUGCGAUAGCGCCUACGUUCUCAACUAUGACACGCAAAACGCGUGCUCCGUUGAAUGGAGUUUAUCAUG,≤ -4.2
6,GGAUCAUCUCGAUCUAACAAAAAAGACAAAUCUACCACAAAGCUUGAGAGCAUCUUCGGAUGCAGAGGUGGCGGCCAUAGGUGGCGAGAUAGCGCUAACGUUCUAAUCUAUGACACGCAAAACGCGUGCUCCGUUAAAAGGAGUUUAUCAUG,≤ -4.2
7,GGAUCUUCUCGAUCUAACUAAAAAGACAAAUCUGCCACAAAGCUUGCGAGCAUCUUCGGAUGCAGAGGCGGCAGCCUUCGGUGGCGCGAUAGUGCCAACGUUCUCAACUAUGACACGCAAAACGCGUGCUCCGUUGAAUGGAGUUUAUCAUG,-1.1
8,GGAUCUUCUCGCUCUUACAAAAAAGACAAAUCUGCCACAAAGCUUGAGAGCAUCUUCGGAAGCAGAGGCGGCAGCCUUCGGUGGCGCGAUAGCGCCAACGUUCUCAACUAUGACACGCAAAACGAGUGCUCCGUUGAAUGGAGUUUAUCAUG,-3.45
9,GGAUCUUCUCGAUCUAACAAAAAAGACAAAUCUGCCACGAAGCUUGAGAGCAUCUUCGGCUGCAGAGGCGGCAGCCUUCGGUGGCGCGAUAGCGCCAACGUUCUCAACUAUGACACGCAAAACGCGUGCUCCGUUGAAUGGAGUUUAUCAUG,-3.03
10,GGAUCUUCUCGAUCUAACAAAAAAGACAAAUCUGCCACAAAGCUUGAGAGUAUCUUCGGAUGCAGAGGCGGCAGCCUUCGGUGGCGCGAUAGCGGCAACGUUCUCAACUAUGACACGCAAAACGCGUGCUCCGUUGAAUGGAGUUUAUCAUG,-1.68
11,GGAUCUUCUCGAUCUAACAAAAAAGACAAAUCUGCCACAAAGCUUGAGAGCAUCUUCGGAAGCAGAGGCGGCAGCCUUCGGUGGCGCGAUAGCGCAAACGUUCUCAACUAUGACACGCAAAACGCAUGCUUCGUUGAAUGGAGUUUAUCAUG,-2.54
12,GGAUCUUCUCGAUGUAACAAAAAAGACAAAUCUGCCACAAAGCUUGAGAGCAUCUUAGGAUGCAGAGGCGGCAGCCUUCGGUGGUGCGAUAGCGCCAAAGUUCUCAACUAUGACACGCAAAAUGCGUGCUCCGUUGAAUGGAGUUUAUCAUG,-3.49
13,GGAUCUUCUCGAUCUAACAAAAAAGACAAAUCUGCCACAAAGCUUGAGAGCAUUUUCGGAUGCAGAGGCGGCAGCCUACGGUGGCUCGAUAGCGCCAACGUUCCAAACUAUGACACGCAAAACGCGUGCGCAGUUAAAUGGAGUUUAUCAUG,≤ -4.2
14,GGAUCUUCUCGGUCUAGCAAAAAAGACAAAUCUGCCACAAAGCUUGAGAGCAUCUUCGGAUGCAGAGGCGGCAGCCUUCGGUGGCGCGAUAGUGCCAACGUUCUCAACUAUGACACGCAGAACGCGUGCUCCGUUGAAUGGAGUUUAUCAUG,-0.897
15,GGAUCUUCUCGAUCUAACAAAAAAGACAAAUCUGCCACAAAGCUUGAGAGCAUCUUUGGAUGCAGAGGCGGCAGCCUUCGGUGGCGCGAUAGCGCCAACGUUCUCAACUGUGACACGCAAAACGCGUGCUCCGUUGAAUGGAGUUUAUCAUG,-2.85
16,GGAUCUUCUCGAUCUAACAAAAAAGACAAAUCUGCCACAAAGCUUGAGAGGAUCUUCGGAUGUAGAGGCGGCAGCCUUCGGUGGCGCGAUAGCGCCAACGUUCUCAACUAUGACAUGCAAAACGCGUGCUCCGUUGAACGGAGUUUAUCAUG,≤ -4.2
17,GGAUCUUCUCGAUCUAACAAAAAAGACAAAUCUGCCACAAAGCUUGAAAGCAUCUUCGGAUGCAGAGGCGGCAGCCUUCGGUGGUGCGAUAGCGCCUACGUUCUCAACUAUGACACGCAAAACGCGUGCCCCGUUGAAUGGAGUUUAUCUUG,≤ -4.2
18,GGAUCUUCUCGAUCUAACAACAAAGACAAAUCUGCCACAAAGCUUGAGAGCAUCUUCGGAUGCAGAGGCGGCAGCCUUCGGUGGCGCGAUAGCGCCAACGUUCUCAACUAUGACACGCAAAACGCGUGCUCCGUUGAAUGGCGUUUAUCAUG,0.655
19,GGAUCUUCUCGAUCUAACAAAAAAGACAAAUCUGCCACAAAGCUUGAGAACAUCUUCGGAUGCAGAGGCGGCAGCCUUCGGUGGCACGAUAGCGCCAACGUUCUCAACUAUGACACGCAAAACGCGUGCUCCGUUGAAUGGAGUUUAUCAUG,-3.01
